Experimental data as given in PMC6284806 (Nanotechnology, 2015).

Molecular target: the molecule itself
Experiment: AUC

B1: Horse spleen apoferritin (natural protein, UniProt P02791 1-175, looked up)
chain: MSSQIRQNYSTEVEAAVNRLVNLYLRASYTYLSLGFYFDRDDVALEGVCHFFRELAEEKREGAERLLKMQNQRGGRALFQDLQKPSQDEWGTTLDAMKAAIVLEKSLNQALLDLHALGSAQADPHLCDFLESHFLDEEVKLIKKMGDHLTNIQRLVGSQAGLGEYLFERLTLKHD
stoichiometry N: 24
